Data published in patent US20120316071A1 (published 2012).
Blank lines part the entries; values can stand above or below the binder they belong to.

Columns and labels:
[1] = biological target: T1, rHuman IGF-1 sR (IGF-1 sR), CF (R&D Systems Cat#391-GR) (human, UniProt P08069 31-932); experiment: Multispot ECL (MSD) titration; antigen spotted on plate; Fab 1570 nM; blank spot 866
T1 construct: Bought soluble receptor; also called insulin-like growth factor-1 soluble receptor

[2] = biological target: T2, rHuman P-Cadherin/Fc Chimera, CF (R&D Systems Cat#861-PC) (human, UniProt P22223 108-654); experiment: as above
T2 construct: Bought Fc chimera; Fc part of the bought chimera not given

[3] = biological target: T3, Recombinant Human DLL4 (R&D Systems Cat#1506-D4/CF) (human, UniProt Q9NR61 27-524); experiment: as above
T3 construct: Bought recombinant protein; also called delta-like protein 4; rHuman DLL4

[4] = biological target: T4, rHuman Notch-1/Fc Chimera, CF (R&D Systems Cat#3647-TK) (human, UniProt P46531 19-526); experiment: as above
T4 construct: Bought Fc chimera; Fc part of the bought chimera not given

[5] = biological target: T5, rHuman HGF R/c-MET/Fc Chimera, CF (R&D Systems Cat#358-MT/CF) (human, UniProt P08581 25-932); experiment: as above
T5 construct: Bought Fc chimera; also called HGF R/Fc; hepatocyte growth factor receptor; Fc part of the bought chimera not given
T5 sequence (P08581 25-932, change not shown): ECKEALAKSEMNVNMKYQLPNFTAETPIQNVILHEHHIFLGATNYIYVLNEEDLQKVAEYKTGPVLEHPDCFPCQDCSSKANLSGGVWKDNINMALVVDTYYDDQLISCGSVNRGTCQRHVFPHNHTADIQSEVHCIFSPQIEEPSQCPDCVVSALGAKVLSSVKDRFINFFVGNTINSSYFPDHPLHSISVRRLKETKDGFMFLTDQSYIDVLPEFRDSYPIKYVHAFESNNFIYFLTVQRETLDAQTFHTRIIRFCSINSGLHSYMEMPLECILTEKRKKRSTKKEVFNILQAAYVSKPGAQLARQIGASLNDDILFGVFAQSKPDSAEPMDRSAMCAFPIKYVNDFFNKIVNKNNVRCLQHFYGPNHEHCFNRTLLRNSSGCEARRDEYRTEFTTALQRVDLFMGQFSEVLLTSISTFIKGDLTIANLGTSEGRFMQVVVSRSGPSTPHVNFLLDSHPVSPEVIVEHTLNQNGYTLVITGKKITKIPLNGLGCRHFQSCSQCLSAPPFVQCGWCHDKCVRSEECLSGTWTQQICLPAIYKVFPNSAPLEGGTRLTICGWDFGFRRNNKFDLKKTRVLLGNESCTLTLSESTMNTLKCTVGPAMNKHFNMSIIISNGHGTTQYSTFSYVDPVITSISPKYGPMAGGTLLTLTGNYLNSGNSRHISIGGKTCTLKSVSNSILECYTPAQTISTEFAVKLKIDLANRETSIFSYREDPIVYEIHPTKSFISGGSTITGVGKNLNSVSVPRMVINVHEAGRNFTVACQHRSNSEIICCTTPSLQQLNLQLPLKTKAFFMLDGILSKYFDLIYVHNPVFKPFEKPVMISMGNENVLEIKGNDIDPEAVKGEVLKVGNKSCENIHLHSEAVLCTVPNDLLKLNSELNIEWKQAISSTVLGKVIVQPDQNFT

[6] = biological target: T6, rHuman Erythropoietin R/Fc Chimera, CF (R&D Systems Cat#963-ER) (human, UniProt P19235 25-250); experiment: as above
T6 construct: Bought Fc chimera; also called EPO R/Fc; EPO R; Fc part of the bought chimera not given
T6 sequence (looked up): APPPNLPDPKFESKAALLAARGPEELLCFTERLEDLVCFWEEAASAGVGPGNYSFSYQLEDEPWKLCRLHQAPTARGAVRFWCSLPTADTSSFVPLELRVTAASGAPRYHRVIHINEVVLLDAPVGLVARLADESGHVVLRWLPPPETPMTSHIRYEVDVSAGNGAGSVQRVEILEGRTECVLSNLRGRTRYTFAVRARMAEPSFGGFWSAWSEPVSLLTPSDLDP

[7] = biological target: T7, rHuman CD44/Fc Chimera, CF (R&D Systems Cat#3660-CD) (human, UniProt P16070 21-220); experiment: as above
T7 construct: Bought Fc chimera; Fc part of the bought chimera not given

[8] = biological target: T8, rHuman CD44/Fc Chimera, CF (R&D Systems Cat#3660-CD) (human, UniProt P16070 21-220); experiment: ECL Multispot (MSD), antigen spotted; Fab 50 (µM); blank 386
T8 construct: Bought recombinant protein; Fc part of the bought chimera not given

[9] = biological target: T1, rHuman IGF-1 sR (IGF-1 sR), CF (R&D …); experiment: Multispot ECL (MSD) titration; antigen spotted on plate; Fab 14.5 nM; blank spot 117
[10] = biological target: T2, rHuman P-Cadherin/Fc Chimera, CF (R&D …); experiment: as above
[11] = biological target: T3, Recombinant Human DLL4 (R&D Systems …); experiment: as above
[12] = biological target: T9, rHuman ErbB2/Fc Chimera, CF (R&D Systems Cat#1129-ER) (human, UniProt P04626 23-652); experiment: as above
T9 construct: Bought Fc chimera; also called human epidermal growth factor 2 receptor; Fc part of the bought chimera not given

[13] = biological target: T4, rHuman Notch-1/Fc Chimera, CF (R&D …); experiment: as above
[14] = biological target: T6, rHuman Erythropoietin R/Fc Chimera, CF …; experiment: as above
[15] = biological target: T7, rHuman CD44/Fc Chimera, CF (R&D Systems …); experiment: as above
[16] = biological target: T10, rHuman Erythropoietin R/Fc Chimera, CF (R&D Systems Cat#963-ER) (human, UniProt P19235 25-250); experiment: Multispot ECL (MSD), antigen spotted on plate, Fab 125 nM; blank spot 403
T10 construct: Bought recombinant protein; also called EPO R/Fc; Epo R; Fc part of the bought chimera not given
T10 sequence (looked up): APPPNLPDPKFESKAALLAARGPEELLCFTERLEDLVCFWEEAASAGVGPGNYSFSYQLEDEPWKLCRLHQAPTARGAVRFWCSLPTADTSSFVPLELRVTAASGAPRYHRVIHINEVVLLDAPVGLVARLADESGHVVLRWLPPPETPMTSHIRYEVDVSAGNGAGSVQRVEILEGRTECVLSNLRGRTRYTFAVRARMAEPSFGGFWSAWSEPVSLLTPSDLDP

[17] = biological target: T11, rHuman IGF-1 sR, CF (R&D Systems Cat#391-GR) (human, UniProt P08069 31-932); experiment: as above
T11 construct: Bought recombinant soluble receptor; also called insulin-like growth factor-1 soluble receptor

[18] = biological target: T12, rHuman Notch-1/Fc Chimera, CF (R&D Systems Cat#3647-TK) (human, UniProt P46531 19-526); experiment: as above
T12 construct: Bought recombinant protein; Fc part of the bought chimera not given

[19] = biological target: T13, Recombinant Human DLL4 (R&D Systems Cat#1506-D4/CF) (human, UniProt Q9NR61 27-524); experiment: as above
T13 construct: Bought recombinant protein; also called rHuman DLL4; delta-like protein 4

B1: Fab VH1-46_IGHD3-10*01_IGHJ4*01 & O1_IGKJ1*01 (Fab, V domains shown)
VH: QVQLVQSGAEVKKPGASVKVSCKASGYTFTSYYMHWVRQAPGQGLEWMGIINPSGGSTSYAQKFQGRVTMTRDTSTSTVYMELSSLRSEDTAVYYCAREYYYGSGSYYNDYFDYWGQGTLVTVSS
VL: DIVMTQTPLSLPVTPGEPASISCRSSQSLLDSDDGNTYLDWYLQKPGQSPQLLIYTLSYRASGVPDRFSGSGSGTDFTLKISRVEAEDVGVYYCMQRIEFPSWTFGQGTKVEIKR
notes: Germline library Fab expressed in E. coli; VH was cloned into Plasmid A (CH1 constant region, His6 and Flag tags); The kappa VL was cloned into Plasmid C (kappa CL)
ECL signal [1]: 1430 | ECL signal [2]: 1790 | ECL signal [3]: 2700 | ECL signal [4]: 1640 | ECL signal [5]: 1640 | ECL signal [6]: 6120 | ECL signal [7]: 1380

B3: Fab VH1-46_IGHD6-13*01_IGHJ4*01 & O1_IGKJ1*01 (Fab, V domains shown)
VH: QVQLVQSGAEVKKPGASVKVSCKASGYTFTSYYMHWVRQAPGQGLEWMGIINPSGGSTSYAQKFQGRVTMTRDTSTSTVYMELSSLRSEDTAVYYCAREGYSSSWYDYFDYWGQGTLVTVSS
VL: DIVMTQTPLSLPVTPGEPASISCRSSQSLLDSDDGNTYLDWYLQKPGQSPQLLIYTLSYRASGVPDRFSGSGSGTDFTLKISRVEAEDVGVYYCMQRIEFPSWTFGQGTKVEIKR
notes: as for B1
ECL signal [9]: 234 | ECL signal [10]: 277 | ECL signal [11]: 1150 | ECL signal [12]: 274 | ECL signal [13]: 317 | ECL signal [14]: 660 | ECL signal [15]: 212

Other lines, results leading:

ECL signal [8]: 557
B2: Fab VH1-46_IGHD6-6*01_IGHJ1*01 S102A/S103P/S104F (APF) & L6_IGKJ1*01 (Fab, V domains shown)
VH: QVQLVQSGAEVKKPGASVKVSCKASGYTFTSYYMHWVRQAPGQGLEWMGIINPSGGSTSYAQKFQGRVTMTRDTSTSTVYMELSSLRSEDTAVYYCAREEYAPFSAEYFQHWGQGTLVTVSS
VL: not shown
notes: Tested as a Fab made in E. coli: VH cloned in Plasmid A (CH1 constant region, His6 and Flag tags), VL in Plasmid C (kappa constant region); also called H:APF & L:wt; APF triple mutant

ECL signal [16]: 9240 | ECL signal [17]: 654 | ECL signal [18]: 802 | ECL signal [19]: 912
B4: Fab VH1-46_IGHD6-13*01_IGHJ4*01 & B3_IGKJ1*01 (Fab, V domains shown)
VH: QVQLVQSGAEVKKPGASVKVSCKASGYTFTSYYMHWVRQAPGQGLEWMGIINPSGGSTSYAQKFQGRVTMTRDTSTSTVYMELSSLRSEDTAVYYCAREGYSSSWYDYFDYWGQGTLVTVSS
VL: not shown
notes: Germline Fab made in E. coli; VH was cloned into Plasmid A (CH1, His6 and Flag tags) and the kappa VL into Plasmid C (kappa CL)
